Data set [1] concerns hTERT-HMEC. Briefly: percentage of EdU-negative (G0-arrested) nuclei per well, 72 h; higher = more G0 arrest. As to conditions: reference: sequence is the full UniProt precursor, the tested protein was the secreted form or ectodomain.
Data set [2] relates to MCF7. The data set is described as above. Conditions: reference: sequence is the full UniProt precursor, the tested protein was the secreted form or ectodomain.
Setting [3] is: protein concentration 0.0257143 µM.
The mark [4] stands for this setting: protein concentration 0.257143 µM.
The mark [5] stands for this setting: protein concentration 0.01925 µM.
The mark [6] stands for this setting: protein concentration 0.1925 µM.
Setting [7] is: protein concentration 0.0225 µM.
Setting [8] is: protein concentration 0.03125 µM.
[9] abbreviates: protein concentration 0.3125 µM.
Setting [10] is: protein concentration 0.00771429 µM.
Setting [11] is: protein concentration 0.0771429 µM.

± gives the standard deviation of the averaged measurements.

The values that follow come from the supplement of paper PMC11316812.
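Further: secreted proteins added to cultured cells, EdU pulse at the end, nuclei found by Hoechst imaging, EdU status from nuclear versus surrounding ring intensity ratio, PBS as neutral control.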

As for “MAKDFQDIQQLSSEENDHPFHQGEGPGTRRLNPRRGNPFLKGPPPAQPLAQRLCSMVCFSLLALSFNILLLVVICVTGSQSEGHGGAQLQAELRSLKEAFSNFSSSTLTEVQAISTHGGSVGDKITSLGAKLEKQQQDLKADHDALLFHLKHFPVDLRFVACQMELLHSNGSQRTCCPVNWVEHQGSCYWFSHSGKAWAEAEKYCQLENAHLVVINSWEEQKFIVQHTNPFNTWIGLTDSDGSWKWVDGTDYRHNYKNWAVTQPDNWHGHELGGSEDCVEVQPDGRWNDDFCLQVYRWVCEKRRNATGEVA”, the “percentage of EdU-negative” value in data set [1] (setting [3]) was 4.62 ± 0.061%; in data set [1] (setting [4]) it was 5.93 ± 0.22%; in data set [2] (setting [3]), 27 ± 1.8%; in data set [2] (setting [4]) it was 25.3 ± 2.7%.

Turning to “MAKGFYISKSLGILGILLGVAAVCTIIALSVVYSQEKNKNANSSPVASTTPSASATTNPASATTLDQSKAWNRYRLPNTLKPDSYRVTLRPYLTPNDRGLYVFKGSSTVRFTCKEATDVIIIHSKKLNYTLSQGHRVVLRGVGGSQPPDIDKTELVEPTEYLVVHLKGSLVKDSQYEMDSEFEGELADDLAGFYRSEYMEGNVRKVVATTQMQAADARKSFPCFDEPAMKAEFNITLIHPKDLTALSNMLPKGPSTPLPEDPNWNVTEFHTTPKMSTYLLAFIVSEFDYVEKQASNGVLIRIWARPSAIAAGHGDYALNVTGPILNFFAGHYDTPYPLPKSDQIGLPDFNAGAMENWGLVTYRENSLLFDPLSSSSSNKERVVTVIAHELAHQWFGNLVTIEWWNDLWLNEGFASYVEYLGADYAEPTWNLKDLMVLNDVYRVMAVDALASSHPLSTPASEINTPAQISELFDAISYSKGASVLRMLSSFLSEDVFKQGLASYLHTFAYQNTIYLNLWDHLQEAVNNRSIQLPTTVRDIMNRWTLQMGFPVITVDTSTGTLSQEHFLLDPDSNVTRPSEFNYVWIVPITSIRDGRQQQDYWLIDVRAQNDLFSTSGNEWVLLNLNVTGYYRVNYDEENWRKIQTQLQRDHSAIPVINRAQIINDAFNLASAHKVPVTLALNNTLFLIEERQYMPWEAALSSLSYFKLMFDRSEVYGPMKNYLKKQVTPLFIHFRNNTNNWREIPENLMDQYSEVNAISTACSNGVPECEEMVSGLFKQWMENPNNNPIHPNLRSTVYCNAIAQGGEEEWDFAWEQFRNATLVNEADKLRAALACSKELWILNRYLSYTLNPDLIRKQDATSTIISITNNVIGQGLVWDFVQSNWKKLFNDYGGGSFSFSNLIQAVTRRFSTEYELQQLEQFKKDNEETGFGSGTRALEQALEKTKANIKWVKENKEVVLQWFTENSK”, the “percentage of EdU-negative” value in data set [1] (setting [5]) came to 5.56 ± 1.4%; in data set [1] (setting [6]) it was 7.09 ± 0.27%; in data set [2] (setting [5]), 21.5 ± 1.1%; in data set [2] (setting [6]), 23.6 ± 1.2%.

“MAKMNLSSYILILTFSLFSQGILLSASKSIRNLDDDMVFNTFRLGKGFQKEDTAEKSVIAPSLEQYKNDESSFMNEEENKVSKNTGSKHNFLNHGLPLNLAIKPYLALKGSVAFPAENGVQNTESTQEKREIGDEENSAKFPIGRRDFDMLRCMLGRVYRPCWQV”: the “percentage of EdU-negative” value in data set [1] (setting [7]) is 5.49 ± 0.6%; in data set [1] (protein concentration 0.225 µM), 5.82 ± 0.072%; in data set [2] (setting [7]), 26 ± 2.4%; in data set [2] (protein concentration 0.225 µM), 26 ± 1.2%.

Take “MAKSFPVFSLLSFILIHLVLSSVSGPRHWWPPRGIIKVKCPYEKVNLSWYNGTVNPCPGLYQPICGTNFITYDNPCILCVESLKSHGRIRFYHDGKC [Q6IE38]”: the “percentage of EdU-negative” value worked out at 6.19 ± 0.33% in data set [1] (setting [7]), 6.12 ± 0.94% in data set [1] (protein concentration 0.225 µM), 24 ± 0.13% in data set [2] (setting [7]) and 27 ± 1.2% in data set [2] (protein concentration 0.225 µM).

For the sequence “MAKVFSFILVTTALTMGREISALEDCAQEQMRLRAQVRLLETRVKQQQVKIKQLLQENEVQFLDKGDENTVIDLGSKRQYADCSEIFNDGYKLSGFYKIKPLQSPAEFSVYCDMSDGGGWTVIQRRSDGSENFNRGWKDYENGFGNFVQKHGEYWLGNKNLHFLTTQEDYTLKIDLADFEKNSRYAQYKNFKVGDEKNFYELNIGEYSGTAGDSLAGNFHPEVQWWASHQRMKFSTWDRDHDNYEGNCAEEDQSGWWFNRCHSANLNGVYYSGPYTAKTDNGIVWYTWHGWWYSLKSVVMKIRPNDFIPNVI”, the “percentage of EdU-negative” value came to 6.18 ± 1.3% in data set [1] (setting [8]), 5.22 ± 0.14% in data set [1] (setting [9]), 24.5 ± 4.1% in data set [2] (setting [8]) and 22.8 ± 2.3% in data set [2] (setting [9]).

For the sequence “MALAALMIALGSLGLHTWQAQAVPILPLGLAPDTFDDTYVGCAEEMEEKAAPLLKEEMAHHALLRESWEAAQETWEDKRRGLTLPPGFKAQNGIAIMVYTNSSNTLYWELNQAVRTGGGSRELYMRHFPFKALHFYLIRALQLLRGSGGCSRGPGEVVFRGVGSLRFEPKRLGDSVRLGQFASSSLDKAVAHRFGNATLFSLTTCFGAPIQAFSVFPKEREVLIPPHEVFLVTRFSQDGAQSLVTLWSYNQTCSHFNCAYLGGEKRRGCVSAPGALGTGDLHMTKRHLQQP [Q96L15]”, the “percentage of EdU-negative” value stood at 5.18 ± 0.43% in data set [1] (protein concentration 0.016 µM), 7.23 ± 0.71% in data set [1] (protein concentration 0.16 µM), 26.5 ± 3.2% in data set [2] (protein concentration 0.016 µM) and 29 ± 1.5% in data set [2] (protein concentration 0.16 µM).

In the case of “MALDYLLLLLLASAVAAMEETLMDTRTATAELGWTANPASGWEEVSGYDENLNTIRTYQVCNVFEPNQNNWLLTTFINRRGAHRIYTEMRFTVRDCSSLPNVPGSCKETFNLYYYETDSVIATKKSAFWSEAPYLKVDTIAADESFSQVDFGGRLMKVNTEVRSFGPLTRNGFYLAFQDYGACMSLLSVRVFFKKCPSIVQNFAVFPETMTGAESTSLVIARGTCIPNAEEVDVPIKLYCNGDGEWMVPIGRCTCKPGYEPENSVACKACPAGTFKASQEAEGCSHCPSNSRSPAEASPICTCRTGYYRADFDPPEVACTSVPSGPRNVISIVNETSIILEWHPPRETGGRDDVTYNIICKKCRADRRSCSRCDDNVEFVPRQLGLTECRVSISSLWAHTPYTFDIQAINGVSSKSPFPPQHVSVNITTNQAAPSTVPIMHQVSATMRSITLSWPQPEQPNGIILDYEIRYYEKEHNEFNSSMARSQTNTARIDGLRPGMVYVVQVRARTVAGYGKFSGKMCFQTLTDDDYKSELREQLPLIAGSAAAGVVFVVSLVAISIVCSRKRAYSKEAVYSDKLQHYSTGRGSPGMKIYIDPFTYEDPNEAVREFAKEIDVSFVKIEEVIGAGEFGEVYKGRLKLPGKREIYVAIKTLKAGYSEKQRRDFLSEASIMGQFDHPNIIRLEGVVTKSRPVMIITEFMENGALDSFLRQNDGQFTVIQLVGMLRGIAAGMKYLAEMNYVHRDLAARNILVNSNLVCKVSDFGLSRYLQDDTSDPTYTSSLGGKIPVRWTAPEAIAYRKFTSASDVWSYGIVMWEVMSFGERPYWDMSNQDVINAIEQDYRLPPPMDCPAALHQLMLDCWQKDRNSRPRFAEIVNTLDKMIRNPASLKTVATITAVPSQPLLDRSIPDFTAFTTVDDWLSAIKMVQYRDSFLTAGFTSLQLVTQMTSEDLLRIGITLAGHQKKILNSIHSMRVQISQSPTAMA”, the “percentage of EdU-negative” value came out at 4.82 ± 0.12% in data set [1] (setting [10]), 5.86 ± 0.98% in data set [1] (setting [11]), 26.7 ± 1.5% in data set [2] (setting [10]) and 23.4 ± 1.5% in data set [2] (setting [11]).

For “MALEKSLVRLLLLVLILLVLGWVQPSLGKESRAKKFQRQHMDSDSSPSSSSTYCNQMMRRRNMTQGRCKPVNTFVHEPLVDVQNVCFQEKVTCKNGQGNCYKSNSSMHITDCRLTNGSRYPNCAYRTSPKERHIIVACEGSPYVPVHFDASVEDST”, the “percentage of EdU-negative” value was 4.76 ± 0.11% in data set [1] (setting [8]), 4.52 ± 0.25% in data set [1] (setting [9]), 25.8 ± 0.52% in data set [2] (setting [8]) and 24.63 ± 0.044% in data set [2] (setting [9]).

For the sequence “MALFAVFQTTFFLTLLSLRTYQSEVLAERLPLTPVSLKVSTNSTRQSLHLQWTVHNLPYHQELKMVFQIQISRIETSNVIWVGNYSTTVKWNQVLHWSWESELPLECATHFVRIKSLVDDAKFPEPNFWSNWSSWEEVSVQDSTGQDILFVFPKDKLVEEGTNVTICYVSRNIQNNVSCYLEGKQIHGEQLDPHVTAFNLNSVPFIRNKGTNIYCEASQGNVSEGMKGIVLFVSKVLEEPKDFSCETEDFKTLHCTWDPGTDTALGWSKQPSQSYTLFESFSGEKKLCTHKNWCNWQITQDSQETYNFTLIAENYLRKRSVNILFNLTHRVYLMNPFSVNFENVNATNAIMTWKVHSIRNNFTYLCQIELHGEGKMMQYNVSIKVNGEYFLSELEPATEYMARVRCADASHFWKWSEWSGQNFTTLEAAPSEAPDVWRIVSLEPGNHTVTLFWKPLSKLHANGKILFYNVVVENLDKPSSSELHSIPAPANSTKLILDRCSYQICVIANNSVGASPASVIVISADPENKEVEEERIAGTEGGFSLSWKPQPGDVIGYVVDWCDHTQDVLGDFQWKNVGPNTTSTVISTDAFRPGVRYDFRIYGLSTKRIACLLEKKTGYSQELAPSDNPHVLVDTLTSHSFTLSWKDYSTESQPGFIQGYHVYLKSKARQCHPRFEKAVLSDGSECCKYKIDNPEEKALIVDNLKPESFYEFFITPFTSAGEGPSATFTKVTTPDEHSSMLIHILLPMVFCVLLIMVMCYLKSQWIKETCYPDIPDPYKSSILSLIKFKENPHLIIMNVSDCIPDAIEVVSKPEGTKIQFLGTRKSLTETELTKPNYLYLLPTEKNHSGPGPCICFENLTYNQAASDSGSCGHVPVSPKAPSMLGLMTSPENVLKALEKNYMNSLGEIPAGETSLNYVSQLASPMFGDKDSLPTNPVEAPHCSEYKMQMAVSLRLALPPPTENSSLSSITLLDPGEHYC”, the “percentage of EdU-negative” value was determined as 4.25 ± 0.45% in data set [1] (setting [7]), 5.8 ± 0.95% in data set [1] (protein concentration 0.225 µM), 26.44 ± 0.24% in data set [2] (setting [7]) and 24.9 ± 2% in data set [2] (protein concentration 0.225 µM).
